Test [1] addresses purified fibulin-3 (human) (Homo sapiens (Human)., UniProt Q12805). Kind of test: SPR. (In general: SPR reads the build-up and loss of mass on a sensor chip optically.)
In test [2] the target is T1, free DSL-like peptide from human fibulin-3 (Thr25-Glu47) (Homo sapiens (Human).).
T1 chain: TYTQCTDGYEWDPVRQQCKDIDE
Briefly: ELISA. (In general: An ELISA detects its analyte on a solid surface through an enzyme-linked reagent.)

Sequence of purified fibulin-3 (human) (Q12805 18-493): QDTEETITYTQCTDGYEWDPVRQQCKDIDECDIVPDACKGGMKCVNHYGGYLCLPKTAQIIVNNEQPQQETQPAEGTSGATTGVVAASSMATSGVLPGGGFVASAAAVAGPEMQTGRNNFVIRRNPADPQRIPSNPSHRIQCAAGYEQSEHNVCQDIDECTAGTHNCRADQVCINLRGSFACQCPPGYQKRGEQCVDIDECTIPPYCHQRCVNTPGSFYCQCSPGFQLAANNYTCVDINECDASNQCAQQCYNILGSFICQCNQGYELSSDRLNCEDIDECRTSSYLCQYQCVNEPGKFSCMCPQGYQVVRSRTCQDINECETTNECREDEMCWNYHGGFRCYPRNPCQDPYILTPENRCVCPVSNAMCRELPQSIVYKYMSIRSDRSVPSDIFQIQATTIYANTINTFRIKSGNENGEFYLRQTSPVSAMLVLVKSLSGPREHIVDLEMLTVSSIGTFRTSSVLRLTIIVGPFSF

B1: mAb428.2 (anti-fibulin-3 clone mAb428.2.3C11.H11.G3) (antibody, V domains shown)
VH: QIQLVQSGPELKKPGETVKISCKASGYSFTTYGMSWVKQAPGKGLKWMGWINTYSGVPTYADDFKGRFAFFLETSASTAYLQINNLKNEDTATYFCARWVDYWGQGTTLTVSS
VL: DIKMTQSPSSMYASLGERVTITCKASQDIKSYLSWHQQKPWKSPKTLIYYATSLADGVPSRFSGSGSGQDYSLTISSLESDDTATYYCLQHGKSPYTFGGGTKLEIK
Consider B1, for which, in test [1], the affinity, expressed as Kd, was 5 ± 1 nM. The binding result in test [2] is “binds”.

For orientation: Kd means the constant that tells how readily two partners part at equilibrium. High values mean a looser complex, low ones a tighter complex.

The values are drawn from PMC5815892 (Clinical cancer research : an official journal of the …, 2017).
